The values below come from US9637764B2, “Methods of producing 7-carbon chemicals via carbon chain elongation associated with cyclohexane carboxylate synthesis” (INVISTA North America S.á r.l., priority 2012, dated 2017).

What all share (assay type): biochemical
A short description of series [1]: Carboxylate reductase activity assay, pimelate to pimelate semialdehyde (NADPH consumption, absorbance at 340 nm). To be noted: purified enzyme enhanced by the gene product of sfp, 2 mM pimelate, 1 mM ATP, 1 mM NADPH, pH=7.5, room temperature, 20 min; against the empty vector control; FIG. 10. The protocol: A sequence encoding a HIS-tag was added to the genes from Segniliparus rugosus and Segniliparus rotundus that encode the carboxylate reductases of SEQ ID NOs: 4 and 7, respectively (see FIGS. 7C and 7F), such that N-terminal HIS tagged carboxylate reductases could be produced. Each of the modified genes was cloned into a pET Duet expression vector along with a sfp gene encoding a HIS-tagged phosphopantetheine transferase from Bacillus subtilis, both under the T7 promoter. Each expression vector was transformed into a BL21[DE3] E. coli host and the resulting recombinant E. coli strains were cultivated at 37° C. in a 250 mL shake flask culture containing 50 mL LB media and antibiotic selection pressure, with shaking at 230 rpm. Each culture was induced overnight at 37° C. using an auto-induction media.
The pellet from each induced shake flask culture was harvested via centrifugation. Each pellet was resuspended and lysed via sonication, and the cell debris was separated from the supernatant via centrifugation. […]
Enzyme activity assays (i.e., from pimelate to pimelate semialdehyde) were performed in triplicate in a buffer composed of a final concentration of 50 mM HEPES buffer (pH=7.5), 2 mM pimelate, 10 mM MgCl2, 1 mM ATP and 1 mM NADPH. […] The consumption of NADPH was monitored by absorbance at 340 nm.

Series [2] can be described thus: Carboxylate reductase activity assay, N7-acetyl-7-aminoheptanoate to N7-acetyl-7-aminoheptanal (NADPH consumption, absorbance at 340 nm). To be noted: purified enzyme enhanced by the gene product of sfp, 2 mM N7-acetyl-7-aminoheptanoate, 1 mM ATP, 1 mM NADPH, pH=7.5, room temperature, 20 min; against the empty vector control; FIG. 12. The protocol:
The activity of each of the N-terminal His-tagged carboxylate reductases of SEQ ID NOs: 3, 6, and 7 (see Examples 4, and FIGS. 7B, 7E, and 7F) for converting N7-acetyl-7-aminoheptanoate to N7-acetyl-7-aminoheptanal was assayed in triplicate in a buffer composed of a final concentration of 50 mM HEPES buffer (pH=7.5), 2 mM N7-acetyl-7-aminoheptanoate, 10 mM MgCl2, 1 mM ATP, and 1 mM NADPH. The assays were initiated by adding purified carboxylate reductase and phosphopantetheine transferase or the empty vector control to the assay buffer containing the N7-acetyl-7-aminoheptanoate then incubated at room temperature for 20 min. The consumption of NADPH was monitored by absorbance at 340 nm.

Series [3] can be described thus: Thioesterase enzyme activity assay, pimeloyl-CoA to pimelate (release of Coenzyme A, Ellman's reagent, absorbance at 412 nm). The settings on record: 667 μM pimeloyl-CoA, 0.8 μM enzyme, pH=7.4, 37° C., 20 min; compared to the empty vector control; FIG. 8. The protocol: A sequence encoding an N-terminal His tag was added to the tesB gene from Escherichia coli that encodes a thioesterase (SEQ ID NO 1, see FIG. 7A), such that an N-terminal HIS tagged thioesterase could be produced. The modified tesB gene was cloned into a pET15b expression vector under control of the T7 promoter. The expression vector was transformed into a BL21[DE3] E. coli host. The resulting recombinant E. coli strain was cultivated at 37° C. in a 500 mL shake flask culture containing 50 mL Luria Broth (LB) media and antibiotic selection pressure, with shaking at 230 rpm. The culture was induced overnight at 17° C. using 0.5 mM IPTG.
The pellet from the induced shake flask culture was harvested via centrifugation. The pellet was resuspended and lysed in Y-Per™ solution (ThermoScientific, Rockford, Ill.). The cell debris was separated from the supernatant via centrifugation. […]
The enzyme activity assay was performed in triplicate in a buffer composed of 50 mM phosphate buffer (pH=7.4), 0.1 mM Ellman's reagent, and 667 μM of pimeloyl-CoA (as substrate). […] The release of Coenzyme A was monitored by absorbance at 412 nm. The absorbance associated with the substrate only control, which contained boiled enzyme, was subtracted from the active enzyme assay absorbance and compared to the empty vector control.

B1: SEQ ID NO 4: Segniliparus rugosus carboxylate reductase, Genbank Accession No. EFV11917.1 (protein, listed as Segniliparus rugosus)
chain: MGDGEERAKRFFQRIGELSATDPQFAAAAPDPAVVEAVSDPSLSFTRYLDTLMRGYAERPALAHRVGAGYETISYGELWARVGAIAAAWQADGLAPGDFVATVGFTSPDYVAVDLAAARSGLVSVPLQAGASLAQLVGILEETEPKVLAASASSLEGAVACALAAPSVQRLVVFDLRGPDASESAADERRGALADAEEQLARAGRAVVVETLADLAARGEALPEAPLFEPAEGEDPLALLIYTSGSTGAPKGAMYSQRLVSQLWGRTPVVPGMPNISLHYMPLSHSYGRAVLAGALSAGGTAHFTANSDLSTLFEDIALARPTFLALVPRVCEMLFQESQRGQDVAELRERVLGGRLLVAVCGSAPLSPEMRAFMEEVLGFPLLDGYGSTEALGVMRNGIIQRPPVIDYKLVDVPELGYRTTDKPYPRGELCIRSTSLISGYYKRPEITAEVFDAQGYYKTGDVMAEIAPDHLVYVDRSKNVLKLSQGEFVAVAKLEAAYGTSPYVKQIFVYGNSERSFLLAVVVPNAEVLGARDQEEAKPLIAASLQKIAKEAGLQSYEVPRDFLIETEPFTTQNGLLSEVGKLLRPKLKARYGEALEARYDEIAHGQADELRALRDGAGQRPVVETVVRAAVAISGSEGAEVGPEANFADLGGDSLSALSLANLLHDVFEVEVPVRIIIGPTASLAGIAKHIEAERAGASAPTAASVHGAGATRIRASELTLEKFLPEDLLAAAKGLPAADQVRTVLLTGANGWLGRFLALEQLERLARSGQDGGKLICLVRGKDAAAARRRIEETLGTDPALAARFAELAEGRLEVVPGDVGEPKFGLDDAAWDRLAEEVDVIVHPAALVNHVLPYHQLFGPNVVGTAEIIRLAITAKRKPVTYLSTVAVAAGVEPSSFEEDGDIRAVVPERPLGDGYANGYGNSKWAGEVLLREAHELVGLPVAVFRSDMILAHTRYTGQLNVPDQFTRLVLSLLATGIAPKSFYQQGAAGERQRAHYDGIPVDFTAEAITTLGAEPSWFDGGAGFRSFDVFNPHHDGVGLDEFVDWLIEAGHPISRIDDHKEWFARFETAVRGLPEAQRQHSLLPLLRAYSFPHPPVDGSVYPTGKFQGAVKAAQVGSDHDVPHLGKALIVKYADDLKALGLL
Consider B1, for which, in series [1], the “carboxylate reductase activity for converting pimelate to pimelate semialdehyde” value was “accepted pimelate as substrate”.

B2: SEQ ID NO 6: Mycobacterium massiliense carboxylate reductase, Genbank Accession No. EIV11143.1 (protein)
chain: MTNETNPQQEQLSRRIESLRESDPQFRAAQPDPAVAEQVLRPGLHLSEAIAALMTGYAERPALGERARELVIDQDGRTTLRLLPRFDTTTYGELWSRTTSVAAAWHHDATHPVKAGDLVATLGFTSIDYTVLDLAIMILGGVAVPLQTSAPASQWTTILAEAEPNTLAVSIELIGAAMESVRATPSIKQVVVFDYTPEVDDQREAFEAASTQLAGTGIALETLDAVIARGAALPAAPLYAPSAGDDPLALLIYTSGSTGAPKGAMHSENIVRRWWIREDVMAGTENLPMIGLNFMPMSHIMGRGTLTSTLSTGGTGYFAASSDMSTLFEDMELIRPTALALVPRVCDMVFQRFQTEVDRRLASGDTASAEAVAAEVKADIRDNLFGGRVSAVMVGSAPLSEELGEFIESCFELNLTDGYGSTEAGMVFRDGIVQRPPVIDYKLVDVPELGYFSTDKPHPRGELLLKTDGMFLGYYKRPEVTASVFDADGFYMTGDIVAELAHDNIEIIDRRNNVLKLSQGEFVAVATLEAEYANSPVVHQIYVYGSSERSYLLAVVVPTPEAVAAAKGDAAALKTTIADSLQDIAKEIQLQSYEVPRDFIIEPQPFTQGNGLLTGIAKLARPNLKAHYGPRLEQMYAEIAEQQAAELRALHGVDPDKPALETVLKAAQALLGVSSAELAADAHFTDLGGDSLSALSFSDLLRDIFAVEVPVGVIVSAANDLGGVAKFVDEQRHSGGTRPTAETVHGAGHTEIRAADLTLDKFIDEATLHAAPSLPKAAGIPHTVLLTGSNGYLGHYLALEWLERLDKTDGKLIVIVRGKNAEAAYGRLEEAFDTGDTELLAHFRSLADKHLEVLAGDIGDPNLGLDADTWQRLADTVDVIVHPAALVNHVLPYNQLFGPNVVGTAEIIKLAITTKIKPVTYLSTVAVAAYVDPTTFDEESDIRLISAVRPIDDGYANGYGNAKWAGEVLLREAHDLCGLPVAVFRSDMILAHSRYTGQLNVPDQFTRLILSLIATGIAPGSFYQAQTTGERPLAHYDGLPGDFTAEAITTLGTQVPEGSEGFVTYDCVNPHADGISLDNFVDWLIEAGYPIARIDNYTEWFTRFDTAIRGLSEKQKQHSLLPLLHAFEQPSAAENHGVVPAKRFQHAVQAAGIGPVGQDGTTDIPHLSRRLIVKYAKDLEQLGLL
modifications: Mycobacterium massiliense
Take B2: in series [2], the “carboxylate reductase activity for converting N7-acetyl-7-aminoheptanoate to N7-acetyl-7-aminoheptanal” value is “accepted N7-acetyl-7-aminoheptanoate as substrate”.

B3: tesB: Escherichia coli thioesterase encoded by tesB, GenBank Accession No. AAA24665.1 (protein, listed as Escherichia coli)
chain: MSQALKNLLTLLNLEKIEEGLFRGQSEDLGLRQVFGGQVVGQALYAAKETVPEERLVHSFHSYFLRPGDSKKPIIYDVETLRDGNSFSARRVAAIQNGKPIFYMTASFQAPEAGFEHQKTMPSAPAPDGLPSETQIAQSLAHLLPPVLKDKFICDRPLEVRPVEFHNPLKGHVAEPHRQVWIRANGSVPDDLRVHQYLLGYASDLNFLPVALQPHGIGFLEPGIQIATIDHSMWFHRPFNLNEWLLYSVESTSASSARGFVRGEFYTQDGVLVASTVQEGVMRNHN
B3: the “thioesterase activity for converting pimeloyl-CoA to pimelate” value in series [3] was “accepted pimeloyl-CoA as substrate”.
